Target: HLA-B*0702 (human)
Test: T2-B7 cells, HLA-B*0702 surface expression (ME-1 mAb); ratio to reference peptide CMV265-274 (SEQ ID NO: 9)
Details: remark: other sources report otherwise

B1: TERT444 (peptide)
peptide: DPRRLVQLL
Work on B1 yielded an RA (relative affinity) of over 10.

Reference: patent US20170202936A1, “Identification, Optimization And Use Of Cryptic HLA-B7 Epitopes For Immunotherapy” (VAXON BIOTECH, priority 2006, published 2017)
